Biological target: RNA polymerase II
Experiment: Re-ChIP (IP ERα then IP PolII), real time qPCR
Conditions: HEK293T cells, read off a plot
[1] = complement C3 enhancer, cadmium (2 µM) for 60 minutes
[2] = complement C3 enhancer, control (untreated)
[3] = complement C3 enhancer, estradiol (100 nM) for 60 minutes
[4] = lactoferrin enhancer, cadmium (2 µM) for 60 minutes
[5] = lactoferrin enhancer, control (untreated)
[6] = lactoferrin enhancer, estradiol (100 nM) for 60 minutes

response [1] [% Input]	response [2] [% Input]	response [3] [% Input]	response [4] [% Input]	response [5] [% Input]	response [6] [% Input]	Substance
0.019	0.0076	0.0077	0.014	0.0046	0.0061	wild-type estrogen receptor alpha (from UniProt P03372) D538G
0.015	0.0065	0.0073	0.0063	0.0022	0.0022	wild-type estrogen receptor alpha (from UniProt P03372) Y537S

Source: paper PMC11341946
